Test system: MS2 coat protein
Assay: apparent KD of MS2 coat protein; designed switch direction (-1 OFF switch, 1 ON switch): -1; higher = weaker reporter binding
Method in brief: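 The buffer was Tris-HCl pH 7.5 with KCl, MgCl2, BSA, DTT, tRNA and Tween-20. In it, SNAP-549-labelled MS2 coat protein was titrated in doubling steps from 0.7 or 1.5 nM to 3 µM over chip-bound RNA switches transcribed by stalled E. coli RNA polymerase on Illumina chips. Apparent KD is the per-design median over clusters of curve fits to normalised fluorescence.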

[1] = input ligand: microRNA oligo, concentration not stated
[2] = Eterna round: R95, input ligand: FMN 200 uM
[3] = Eterna round: R95, input ligand: microRNA oligo, concentration not stated
[4] = Eterna round: R95, input ligand: none

Sequence	apparent KD of MS2 coat protein (input ligand: FMN 200 uM) [nM]	apparent KD of MS2 coat protein (input ligand: none) [nM]	apparent KD of MS2 coat protein [1] [nM]	apparent KD of MS2 coat protein [2] [nM]	apparent KD of MS2 coat protein [3] [nM]	apparent KD of MS2 coat protein [4] [nM]
CGGCAAUCCUAGGAUAUGCUAGACGAGAGUCUAGCAGAAGGAGGAACAUGAGGAUCACCCAUGUGUCCUAGCCG [Mat - Exclusion 6 - Eli Mod - D15] (Eterna round: R97, puzzle: Exclusion 6)	22.1	15.6				
CGGCGACAUGAGGAUCACCCAUGUGAGGAUAUGACGGGAAAAGCGUGAGCGGUUUGUGUCAGAAGGCGCGUAGG [salish99_ex1_r4_084] (Eterna round: R97, puzzle: Exclusion 1)	20.8	28.7				
CGGGACGUCCUGAUAAUAAGACAUGAGGAUCACCCAUGUCGGCAGGAUAUCAGUCCUUACGGUUUUGAGAAGGGUCGACAACCA [Birace] (Eterna round: R96, puzzle: Exclusion NG 3)	14.1	13.4	8.27			
CGGUCCUGAGUGAGGAUAUUGUCAGGCGAAGCCUGCAAGAAGGUACUUGAGGAUCACCCAAGUACGCUCUUGGC [Estimama] (Eterna round: R97, puzzle: Brourd's mod of Exclusion 4)	21.2	16.8				
CGGUGCUGAGGAUAUACAUGAGGAUCACCCAUGUGUUCCAGCUAGGUGACUGGCAAAUGUAGAAGGCGGUACUG [JL-ex3-3.36 Brourd mod] (puzzle: Exclusion 3)				40.7	77.7	105
CGGUGCUGAGGAUAUACAUGAGGAUCACCCAUGUGUUCCAGCUAGGUGACUGGCGGAUGUAGAAGGCGGUACUG [JL-ex3-3.39 Brourd mod] (puzzle: Exclusion 3)				245	31.2	64.8
CGGUGUAGAGGAUAUACGUGGAUAUAAGAACAUGAUAAUUUACAUGAGGAUCACCCAUGUAGAAGGCUAUAGCG [JR_Ex2_Sub080] (Eterna round: R97, puzzle: Exclusion 2)	74.8	207				
CGUACUGAAGUGAGGAUAUUGUCUCGGAUACGAAACAAGAAGGCACAUGAGGAUCACCCAUGUUGACAGUACGA [Malc #30 mod 7] (puzzle: Brourd's mod of Exclusion 4)					15	
CGUAUGUCAGGAUAUCGUGCAUACAACGAAAGUUCUAUGUGCGAGAAGGGACAUGAGGAUCACCCAUGUUUACG [Omei Ex4 A12] (Eterna round: R97, puzzle: Exclusion 4)	89	26.1				
CGUCAGUGAGGAUAUGGUAACAUUUACAUGAGGAUCACCCAUGUUUCAUGGGACUAAAGACUAGAAGGCACUGACG [JR_Ex5_Sub031] (Eterna round: R97, puzzle: Exclusion 5)	80.9	36.9				
CGUCGAAAUGUAGGAUAUCUGCACGUGUAGUGCAGAGAAGGACAUGAGGAUCACCCAUGUAGAUCACGACGAAUUAAUUUAAUU [ENG1/5-C3] (Eterna round: R96, puzzle: Exclusion NG 1)	468	56.9	50.4			
CGUGCGUAUGUGAGGAUAUGCUGGUCCUUGGAUCAGCAGAAGGCACAUGAGGAUCACCCAUGUGGUGUCGUACC [salish99_Bmod_Ex4_001] (puzzle: Brourd's mod of Exclusion 4)					170	
CGUGUCUUUUACGUGAGUGGUGGGUGCAACAGGUGGGUUACAUGAGGAUCACCCAUGUGCUCACUUGCUCGUCUUUU [Grok-var2-09] (puzzle: Sensor v3, turn-off variant 2)				60.7	39.3	58.1
CGUGUGUCAGGAUAUACGUUGGGCCAGCAUGGCUAAAGACAGUAGAAGGGACAUGAGGAUCACCCAUGUGGAGU [Eternabot (L2) Solution 4] (Eterna round: R97, puzzle: Exclusion 4)	571	78.9				
CGUUCGCGAGGAUAUGCAUUCGAGUCCACUACGUGUCUGGGACUUGAGGAUCACCCAAGUAGAAGGCGCCUCCA [salish99_ex2_r4_650] (Eterna round: R97, puzzle: Exclusion 2)	78.5	130				
CGUUCGCGAGGAUAUGCAUUCGAGUCCACUACGUGUCUGGGACUUGAGGAUCACCCAAGUAGAAGGCGCCUCCC [salish99_ex2_r4_649] (Eterna round: R97, puzzle: Exclusion 2)	71.3	47.9				
CGUUCGCGAGGAUAUGCAUUCGAGUCCAUUACGUGUCUGGGACUUGAGGAUCACCCAAGUAGAAGGCGUCUCAC [salish99_ex2_r4_646] (Eterna round: R97, puzzle: Exclusion 2)	135	154				
CGUUGGUCAGGAUAUGGUGGGCUGGUCGCGCGGCCGGGUGGCUAGAAGGGACAUGAGGAUCACCCAUGUACGGC [excls4-IX] (Eterna round: R96, puzzle: Exclusion 4)	60.3	48.9	30.1			
CGUUGUAUAGGAUAUACAUGAGGAUCACCCAUGUGAAAUUAUAGUGAGGAAAUGAAAAGUAGAAGGGUAUGACA [Mod of Mat 7 - Jieux - Exclusion 3] (Eterna round: R97, puzzle: Exclusion 3)	35.5	45.3				
CUAAAUCAUGUAGGAUAUGCGUGGCAAAGCUAUGCAGAAGGACAUGAGGAUCACCCAUGUCAUUCCGUCUGGGAACAGACGGGA [Mat - Exclusion NG 1 - Mod of JL - D52] (Eterna round: R96, puzzle: Exclusion NG 1)	158	24.5	17.5			
CUAAAUCAUGUAGGAUAUGCGUGGCAAAGCUAUGCAGAAGGACAUGAGGAUCACCCAUGUGCUUCCGUCUGCGUACAGACGGUA [Mat - Exclusion NG 1 - Mod of JL - D21] (Eterna round: R96, puzzle: Exclusion NG 1)	551	110	79.2			
CUAAAUCAUGUAGGAUAUGCGUGGCGAAGCUAUGCAGAAGGACAUGAGGAUCACCCAUGUCUUUCCGUCUGCGUACAGACGGAA [JL ENG1 1.19] (Eterna round: R96, puzzle: Exclusion NG 1)	303	23.5	17.3			
CUAAAUCAUGUAGGAUAUGCGUGGCGAAGCUAUGCAGAAGGACAUGAGGAUCACCCAUGUGCUUCCGUCUGCGUACAGACGGUA [JL ENG1 1.16] (Eterna round: R96, puzzle: Exclusion NG 1)	136	83.3	59.7			
CUAGAGUGAGGAUAUACGAGAUCGAAAGAUCGGCGAUCCCUACAUGAGGAUCACCCAUGUAGAAGGCACUCUAG [Mod 12 - Jieux - Exclusion 2] (Eterna round: R97, puzzle: Exclusion 2)	115	16				
CUAGAUCUUCGGAUCUAGGACAUGAGGAUCACCCAUGUCACGAGCAGAUCUUCAUGCAAGCUUUUUGCUCGUCUUAU [Sensor v3 - Turn-off variant 1 - 37] (Eterna round: R96, puzzle: Sensor v3, turn-off variant 1)	27	29.2	339			
CUAGAUCUUCGGAUCUAGGACAUGAGGAUCACCCAUGUCACGAGCAGAUCUUCAUGCAAGCUUUUUGCUCGUCUUAU [Sensor v3 - Turn-off variant 1 - 37] (puzzle: Sensor v3, turn-off variant 1)				27.3	409	33.4
CUAGAUCUUCGGAUCUAGUACAUGAGGAUCACCCAUGUGACGAGUAGAUCCUCAAACAAGCUUUUUGCUCGUCUUAU [Sensor v3 - Turn-off variant 1 - 20] (Eterna round: R96, puzzle: Sensor v3, turn-off variant 1)	132	194	16.4			
CUAGAUCUUCGGAUCUAGUACAUGAGGAUCACCCAUGUGACGAGUAGAUCCUCAAACAAGCUUUUUGCUCGUCUUAU [Sensor v3 - Turn-off variant 1 - 20] (puzzle: Sensor v3, turn-off variant 1)				43.3	9.51	111
CUAGAUCUUCGGAUCUAGUACAUGAGGAUCACCCAUGUGACGAGUAUAUCUUCAAACAAGCUUUUUGCUCGUCUUAU [Sensor v3 - Turn-off variant 1 - 24] (puzzle: Sensor v3, turn-off variant 1)				37.3	49.5	40.6
